Measurements reported in patent US20210347873A1 (SHANGHAI PHARMAEXPLORER, published 2021).

T1: human APRIL protein (human, UniProt O75888 105-250, limits assumed)
T1 construct: Bought protein; also called recombinant APRIL protein
T1 sequence (looked up): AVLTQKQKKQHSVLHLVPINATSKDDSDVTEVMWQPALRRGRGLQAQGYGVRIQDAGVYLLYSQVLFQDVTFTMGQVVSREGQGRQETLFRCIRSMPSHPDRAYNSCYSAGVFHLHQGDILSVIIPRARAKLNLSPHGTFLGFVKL


Columns and labels:
biotinylated hBLyS-ECD [1] = molecular target: T2, biotinylated hBLyS-ECD (human, UniProt Q9Y275 134-285, biotinylated with Biotin-X-X-NHS (molar ratio 7:1); sites not stated); test: blocking ELISA: biotinylated hBLyS-ECD on coated BAFF R, antibody 20 nM
T2 construct: also called biotinylated immunogen; BLyS protein
Description: (§1) BAFF R (purchased from R & D Systems) was aliquoted into 96-well ELISA plate at 50 ng per well, and the plate was sealed with plastic film and incubated overnight at 4° C. On the next day the plate was washed four times with the plate washing buffer [PBS buffer containing 0.05% (v/v) Tween20] and added with blocking solution [PBS buffer containing 0.05% (v/v) Tween20 and 1% (w/w) BSA], then blocked for 1 hour at room temperature. The blocking solution was removed and 50 μL per well of the lead antibodies prepared in Embodiment 1 and 2 were added followed by the addition of 50 μL per well of the biotinylated hBLyS-ECD prepared in Embodiment 2. After incubation for 1 hour at 37° C., the plate was washed four times with the plate washing buffer [PBS buffer containing 0.05% (v/v) Tween20]. 100 μL per well of HRP-labeled (horseradish peroxidase) avidin (purchased from Sigma) was added and incubated at 37° C. for 1 hour. The plate was then washed four times with the plate washing buffer [PBS buffer containing 0.05% (v/v) Tween20]. 100 μL of TMB substrate was aliquoted into each well and after incubation for 5 minutes at room temperature, then 100 μL of stop solution (1.0 N HCl) was aliquoted into each well. A₄₅₀ₙₘ values were read with an ELISA plate reader (SpectraMax 384plus, Molecular Device) and the results were shown in FIGS. 9A-9B and Table 15. It was shown in Table 15 that the binding of BLyS protein to its receptor BAFF R could be blocked by the BLyS antibody.

biotinylated hBLyS-ECD [2] = molecular target: T2, biotinylated hBLyS-ECD; test: blocking ELISA: biotinylated hBLyS-ECD on coated BAFF R, antibody 100 nM
Description: as §1

biotinylated hBLyS-ECD [3] = molecular target: T2, biotinylated hBLyS-ECD; test: blocking ELISA: biotinylated hBLyS-ECD on coated BAFF R, antibody 0.16 nM
Description: as §1

biotinylated hBLyS-ECD [4] = molecular target: T3, biotinylated hBLyS-ECD (human, UniProt Q9Y275 134-285, biotinylated with Biotin-X-X-NHS (molar ratio 7:1), sites not stated); test: ELISA, biotinylated hBLyS-ECD captured on streptavidin; antibody 0.534 nM
T3 construct: The hBLyS-ECD of Embodiment 1 after biotinylation (Embodiment 2); also called biotinylated immunogen; BLyS protein; not shown: His tag of the pCPC vector
Description: Streptavidin was first diluted to a final concentration of 1.0 μg/mL with PBS, and then 50 μL of diluted streptavidin per well was aliquoted into 96-well ELISA plate, which was subsequently sealed with plastic film and incubated at 4° C. overnight. On the next day the plate was washed four times with the plate washing buffer [PBS buffer containing 0.05% (v/v) Tween20] and added with the blocking solution [PBS buffer containing 0.05% (v/v) Tween20 and 1% (w/w) BSA] and blocked for 2 hours at 37° C. The blocking solution was removed, the biotinylated hBLyS-ECD prepared in Embodiment 2 was diluted with PBS to a final concentration of 50 ng/mL and then aliquoted into the 96-well ELISA plate at 50 μL per well and incubated for 1 hour at 37° C. After rinsing the plate four times with the plate washing buffer [PBS buffer containing 0.05% (v/v) Tween20], 100 μl of the purified lead antibody harvested in Embodiment 1 and 2 was pipetted into each well. After incubation for 1 hour at 37° C., the plate was rinsed four times with the plate washing buffer [PBS buffer containing 0.05% (v/v) Tween20]. HRP-labeled (horseradish peroxidase) secondary antibody (purchased from Sigma) was added in and incubated at 37° C. for 1 hour. The plate was then rinsed four times with the plate washing buffer [PBS buffer containing 0.05% (v/v) Tween20]. 100 μL of TMB substrate was aliquoted into each well and after incubation for 5 minutes at room temperature, 100 μL of stop solution (1.0 N HCl) was aliquoted into each well. A₄₅₀ₙₘ values were read via an ELISA plate reader (SpectraMax M5e purchased from Molecular Devices) and the results were shown in FIGS. 5A-5B and Table 10.

human APRIL protein = molecular target: T1, human APRIL protein; test: ELISA: APRIL coated at 1.0 µg/mL, antibody titrated, HRP secondary antibody
Description: To test whether the BLyS antibody cross-reacted with human APRIL protein, APRIL protein (purchased from R & D Systems) was first diluted to a final concentration of 1.0 μg/mL with PBS, and then 50 μL of which per well was aliquoted into a 96-well ELISA plate, and the plate was subsequently sealed with plastic film and incubated at 4° C. overnight. On the next day the plate was rinsed four times with the plate washing buffer [PBS buffer containing 0.0500 (v/v) Tween20] and a blocking solution [PBS buffer containing 0.05 (v/v) Tween20 and 1 (w/w) BSA] was added, then the protein was blocked at 37° C. for 2 hours. The blocking solution was removed and 100 μL per well of the lead antibodies prepared in Embodiment 1 and 2 were added in. After incubation for 1 hour at 37° C., the plate was rinsed four times with the plate washing buffer [PBS buffer containing 0.05 (v/v) Tween20]. HRP-labeled (horseradish peroxidase) secondary antibody (purchased from Sigma) was added in and incubated at 37° C. for 1 hour. The plate was then rinsed four times with the plate washing buffer [PBS buffer containing 0.050 (v/v) Tween20]. 100 μL of TMB substrate was aliquoted into each well and after incubation at room temperature for 5 minutes, 100 μL of stop solution (1.0 N HCl) was aliquoted into each well. A₄₅₀ₙₘ values were read via an ELISA plate reader (SpectraMax M5e purchased from Molecular Devices) and the results were shown in FIGS. 6A-6B and Table 11. […] As used herein, the IgG control is human IgG and the data in the table is GD number at 450 nm.

Binder	OD450 nm (biotinylated hBLyS-ECD [1])	OD450 nm (biotinylated hBLyS-ECD [2])	OD450 nm (biotinylated hBLyS-ECD [3])	OD450 nm (biotinylated hBLyS-ECD [4])	binding result (human APRIL protein)
L1D12 (antibody, human IgG1, V domains shown, also called LID12) VH: QVQLVQSGGGLVQPGGSLRLSCAASGFTVSSNYMSWVRQAPGKGLEWVSVIYSGGSTYYADSVKGRFTISRDNSKNTLYLQMNSLRAEDTAVYYCARGFHDILTGYGMDVWGQGTTVTVSS VL: SSELTQDPAVSVALGQTVRITCQGDSLRNYYAGWYQQKPGQAPVLVIYGKNNRPSGIPDRFSGSSSGNTASLTITGTQAEDEADYYCSSRDNSGTHLVEFGGGTKLTVL	–	–	–	1.5	no binding (tested: 66.7 nM)
L9G7 (antibody, human IgG1, V domains shown) VH: QIQLVQSGAEVKKPGASVKVSCKASGYTFTSYGISWVRQAPGQGLEWMGWISAYNGNTNYAQKLQGRVTMTTDTSTSTAYMELRSLRSDDTAVYYCARTYYDILTGYYYYGMDVWGQGTTVTVSS VL: EIVLTQSPGTLSLSPGERATLSCRTSQSVDTYLAWYQQKPGQAPRLLIYDASNRATGIPARFSGSGSGTDFTLTISSLEPEDFAVYYCQQRSNWPLTFGGGTKVEIK	–	–	–	1.35	no binding (tested: 66.7 nM)
8E7D9C7F5 (antibody, V domains shown, Mouse hybridoma monoclonal antibody purified on Protein G) VH: QVQLQQSGVELARPGASVKLSCKASGYTFTSYGISWVKQRTGQALEWIGEIYPRSGNTYYNEKFKGKATLTADKSSSTAYMELRSLTSEDSAVYFCARSGPITTLVATDYGMDYWGQGTSVTVSS VL: DIVLTQSPASLAVSLGQRATISCRASKSVSTSSYSYMHWYQQKPGQPPKLLIKFASNLESGVPARFSGSGSGTDFTLNIHPVEEEDAATYYCQHSREFPYTFGGGTKLEIK	0.133 OD450 nm	0.11 OD450 nm	0.61 OD450 nm	–	–

Next, values leading:

OD450 nm (biotinylated hBLyS-ECD [1])	OD450 nm (biotinylated hBLyS-ECD [2])	OD450 nm (biotinylated hBLyS-ECD [3])	OD450 nm (biotinylated hBLyS-ECD [4])	binding result (human APRIL protein)	Binder
0.125 OD450 nm	0.107 OD450 nm	0.816 OD450 nm	–	–	97A3C2H4 (antibody, V domains shown, Mouse hybridoma monoclonal antibody purified on Protein G) VH: EVKLVESGGGLVQPGGSLKLSCAASGFTFSTYTMSWVRQTPEKRLEWVAYISYGGGSTSYPDTVKGRFTISRDNAKNTLYLQMSSLKSEDTAIYYCTRHVTVVENSMDYWGQGTSVTVSS VL: DILLTQSPDILSVSPGERVSFSCRASQSIGTSIHWYQQRTNGSPRLLIKYVSESFSGTPSRFSGSGSGTAFTLTINSVESEDIADYYCQQTHSWPWTFGGGTKLEIK
–	–	–	2.12	no binding (tested: 66.7 nM)	97A3C2H4 (antibody, V domains shown, Mouse hybridoma antibody purified on Protein G) VH: EVKLVESGGGLVQPGGSLKLSCAASGFTFSTYTMSWVRQTPEKRLEWVAYISYGGGSTSYPDTVKGRFTISRDNAKNTLYLQMSSLKSEDTAIYYCTRHVTVVENSMDYWGQGTSVTVSS VL: DILLTQSPDILSVSPGERVSFSCRASQSIGTSIHWYQQRTNGSPRLLIKYVSESFSGTPSRFSGSGSGTAFTLTINSVESEDIADYYCQQTHSWPWTFGGGTKLEIK
0.616 OD450 nm	0.605 OD450 nm	0.911 OD450 nm	–	–	111D10D6G3 (antibody, V domains shown, Mouse hybridoma monoclonal antibody purified on Protein G) VH: QVQLQQPGAELVKPGASVKMSCKASGYTFTRHWITWVKQRPGQGLEWIGDIFPGSGSINYNEKFKSEATLTVEKSSSTAYMQLSSLTSEDSAVYYCARGDVDVWGTGTTVTVSS VL: DIQMTQSPSSLSASLGERVSLTCRASQEIRGYLSWLQQKPNGTIKRLIYAASTLDSGVPKRFSATRSGSDFSLTISSLESEDFADYYCLQYASYPFTFGSGTKLEIK
–	–	–	1.41	no binding (tested: 66.7 nM)	111D10D6G3 (antibody, V domains shown, Mouse hybridoma antibody purified on Protein G) VH: QVQLQQPGAELVKPGASVKMSCKASGYTFTRHWITWVKQRPGQGLEWIGDIFPGSGSINYNEKFKSEATLTVEKSSSTAYMQLSSLTSEDSAVYYCARGDVDVWGTGTTVTVSS VL: DIQMTQSPSSLSASLGERVSLTCRASQEIRGYLSWLQQKPNGTIKRLIYAASTLDSGVPKRFSATRSGSDFSLTISSLESEDFADYYCLQYASYPFTFGSGTKLEIK
